Measurements published in patent US20120294802A1 (published 2012).

T1: human Calcitonin Gene Related Peptide alpha (C-terminal amide (-NH2 printed after the last residue F; the filing words it as 'the N-terminal phenylalanine is amidated'); 125I radiolabeled in the receptor binding assay of Example 6)
T1 peptide: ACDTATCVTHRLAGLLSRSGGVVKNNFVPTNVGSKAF


Target: T1, human Calcitonin Gene Related Peptide …
Experiment: ELISA

Binder	EC50
Antibody Ab1 (antibody, V domains shown) VH: QSLEESGGRLVTPGTPLTLTCTVSGLDLSSYYMQWVRQAPGKGLEWIGVIGINDNTYYASWAKGRFTISRASSTTVDLKMTSLTTEDTATYFCARGDIWGPGTLVTVSS VL: QVLTQTASPVSAAVGSTVTINCQASQSVYDNNYLAWYQQKPGQPPKQLIYSTSTLASGVSSRFKGSGSGTQFTLTISDLECADAATYYCLGSYDCSSGDCFVFGGGTEVVVKR	0.103 nM
Antibody Ab4 (antibody, V domains shown) VH: QSLEESGGRLVTPGTPLTLTCSVSGIDLSGYYMNWVRQAPGKGLEWIGVIGINGATYYASWAKGRFTISKTSSTTVDLKMTSLTTEDTATYFCARGDIWGPGTLVTVSS VL: QVLTQTPSPVSAAVGSTVTINCQASQSVYHNTYLAWYQQKPGQPPKQLIYDASTLASGVPSRFSGSGSGTQFTLTISGVQCNDAAAYYCLGSYDCTNGDCFVFGGGTEVVVKR	0.088 nM
Antibody Ab3 (antibody) heavy: not shown light: QVLTQSPSSLSASVGDRVTINCQASQSVYDNNYLAWYQQKPGKVPKQLIYSTSTLASGVPSRFSGSGSGTDFTLTISSLQPEDVATYYCLGSYDCSSGDCFVFGGGTKVEIKRTVAAPSVFIFPPSDEQLKSGTASVVCLLNNFYPREAKVQWKVDNALQSGNSQESVTEQDSKDSTYSLSSTLTLSKADYEKHKVYACEVTHQGLSSPVTKSFNRGEC	0.154 nM
Antibody Ab2 (antibody) heavy: not shown light: QVLTQSPSSLSASVGDRVTINCQASQSVYDNNYLAWYQQKPGKVPKQLIYSTSTLASGVPSRFSGSGSGTDFTLTISSLQPEDVATYYCLGSYDCSSGDCFVFGGGTKVEIKRTVAAPSVFIFPPSDEQLKSGTASVVCLLNNFYPREAKVQWKVDNALQSGNSQESVTEQDSKDSTYSLSSTLTLSKADYEKHKVYACEVTHQGLSSPVTKSFNRGEC	0.083 nM
